Experimental data published in FireProtDB.
Several values for one entry are separate records, joined by “and”; a condition that tells them apart may be missing. Equal values may be shown once.

Conditions: whole UniProt chain shown
[1] = Gallus gallus, pH 7.4, 25 °C, GdnHCl, CD, Tris 50 mM, KCl 100 mM, reversible: yes
[2] = Escherichia coli (strain K12), pH 7.5, 10 °C, Urea, CD, LcrH
[3] = Escherichia coli (strain K12), pH 7.5, 20 °C, Urea, CD, LcrH
[4] = Escherichia coli, pH 5, 23 °C, Urea, DSC, Acetic acid/MES/Tris 50 mM/50 mM/100 mM/, reversible: yes
[5] = Escherichia coli, pH 8, Thermal, DSC, Tris/MES/Acetic acid 100 mM/50 mM/50 mM/, reversible: yes
[6] = Escherichia coli (strain K12), pH 7.5, 20 °C, GdnHCl, CD, HEPES 5 mM, NiCl2 5 mM, reversible: Yes
[7] = Fusarium vanettenii, pH 9, Thermal, DSC, Tris 10 mM, NaCl 40 mM, reversible: no

B1: Head completion protein wild type, P68660 (protein)
chain: MTRQEELAAARAALHDLMTGKRVATVQKDGRRVEFTATSVSDLKKYIAELEVQTGMTQRRRGPAGFYV
Escherichia phage lambda, pH 8, 25 °C, Urea, CD, Tris 10 mM, reversible: yes
  unfolding free energy: 2.91 kcal/mol and 3.27 kcal/mol
Escherichia phage lambda, pH 8, Thermal, CD, Tris 10 mM, reversible: yes
  Tm: 71.6 °C and 71.8 °C

B2: ATP-dependent 6-phosphofructokinase isozyme 2 wild type, P06999 (protein)
chain: MVRIYTLTLAPSLDSATITPQIYPEGKLRCTAPVFEPGGGGINVARAIAHLGGSATAIFPAGGATGEHLVSLLADENVPVATVEAKDWTRQNLHVHVEASGEQYRFVMPGAALNEDEFRQLEEQVLEIESGAILVISGSLPPGVKLEKLTQLISAAQKQGIRCIVDSSGEALSAALAIGNIELVKPNQKELSALVNRELTQPDDVRKAAQEIVNSGKAKRVVVSLGPQGALGVDSENCIQVVPPPVKSQSTVGAGDSMVGAMTLKLAENASLEEMVRFGVAAGSAATLNQGTRLCSHDDTQKIYAYLSR
Escherichia coli (strain K12), pH 7.8, 20 °C, GdnHCl, Activity, Tris 50 mM, Magnesiun chloride 5 mM, reversible: Yes
  unfolding free energy: 12.1 kcal/mol
Escherichia coli (strain K12), pH 7.8, 20 °C, GdnHCl, CD, Tris 50 mM, Magnesiun chloride 5 mM, reversible: Yes
  unfolding free energy: 12.2 kcal/mol
Escherichia coli (strain K12), pH 7.8, 20 °C, GdnHCl, Fluorescence, Tris 50 mM, Magnesiun chloride 5 mM, reversible: Yes
  unfolding free energy: 11.9 kcal/mol

B3: Ribose import binding protein RbsB wild type, P02925 (protein)
chain: MNMKKLATLVSAVALSATVSANAMAKDTIALVVSTLNNPFFVSLKDGAQKEADKLGYNLVVLDSQNNPAKELANVQDLTVRGTKILLINPTDSDAVGNAVKMANQANIPVITLDRQATKGEVVSHIASDNVLGGKIAGDYIAKKAGEGAKVIELQGIAGTSAARERGEGFQQAVAAHKFNVLASQPADFDRIKGLNVMQNLLTAHPDVQAVFAQNDEMALGALRALQTAGKSDVMVVGFDGTPDGEKAVNDGKLAATIAQLPDQIGAKGVETADKVLKGEKVQAKYPVDLKLVVKQ
Escherichia coli (strain K12), pH 7.7, 25 °C, GdnHCl, Fluorescence, HEPES 10 mM, reversible: yes
  unfolding free energy: 5.1 kcal/mol

B4: Apolipoprotein A-I wild type, P08250 (protein)
chain: MRGVLVTLAVLFLTGTQARSFWQHDEPQTPLDRIRDMVDVYLETVKASGKDAIAQFESSAVGKQLDLKLADNLDTLSAAAAKLREDMAPYYKEVREMWLKDTEALRAELTKDLEEVKEKIRPFLDQFSAKWTEELEQYRQRLTPVAQELKELTKQKVELMQAKLTPVAEEARDRLRGHVEELRKNLAPYSDELRQKLSQKLEEIREKGIPQASEYQAKVMEQLSNLREKMTPLVQEFRERLTPYAENLKNRLISFLDELQKSVA
Gallus gallus, pH 7.4, 20 °C, GdnHCl, Fluorescence, Tris 50 mM, KCl 100 mM, reversible: yes
  unfolding free energy: 2.93 kcal/mol
[1]
  denaturant m value: 2.78 kcal/mol/M
  unfolding free energy: 1.86 kcal/mol

B5: Colicin-A wild type, Q47108 (protein)
chain: VAEKAKDERELLEKTSELIAGMGDKIGEHLGDKYKAIAKDIADNIKNFQGKTIRSFDDAMASLNKITANPAMKINKADRDALVNAWKHVDAQDMANKLGNLSKAFKVADVVMKVEKVREKSIEGYETGNWGPLMLEVESWVLSGIASSVALGIFSATLGAYALSLGVPAIAVGIAGILLAAVVGALIDDKFADALNNEIIRPAH
Escherichia coli, pH 3, Thermal, DSC, Na2HPO4-citrate 30 mM, reversible: no
  Tm: 39 °C
Escherichia coli, pH 3.5, Thermal, DSC, Na2HPO4-citrate 30 mM, reversible: no
  Tm: 49 °C
Escherichia coli, pH 4, Thermal, DSC, Na2HPO4-citrate 30 mM, reversible: no
  Tm: 56 °C
Escherichia coli, pH 7, Thermal, DSC, Na2HPO4-citrate 30 mM, reversible: no
  Tm: 69 °C
Escherichia coli, pH 8, Thermal, DSC, Na2HPO4-citrate 30 mM, reversible: no
  Tm: 67 °C

B6: Aspartate aminotransferase wild type, P00509 (protein)
chain: MFENITAAPADPILGLADLFRADERPGKINLGIGVYKDETGKTPVLTSVKKAEQYLLENETTKNYLGIDGIPEFGRCTQELLFGKGSALINDKRARTAQTPGGTGALRVAADFLAKNTSVKRVWVSNPSWPNHKSVFNSAGLEVREYAYYDAENHTLDFDALINSLNEAQAGDVVLFHGCCHNPTGIDPTLEQWQTLAQLSVEKGWLPLFDFAYQGFARGLEEDAEGLRAFAAMHKELIVASSYSKNFGLYNERVGACTLVAADSETVDRAFSQMKAAIRANYSNPPAHGASVVATILSNDALRAIWEQELTDMRQRIQRMRQLFVNTLQEKGANRDFSFIIKQNGMFSFSGLTKEQVLRLREEFGVYAVASGRVNVAGMTPDNMAPLCEAIVAVL
[2]
  denaturant m value: 3.4 kcal/mol/M
  unfolding free energy: 24.4 kcal/mol
[3]
  denaturant m value: 4.8 kcal/mol/M
  unfolding free energy: 12 kcal/mol
Escherichia coli (strain K12), pH 7.5, 25 °C, Urea, enzyme activity, potassium phosphate 20 mM
  unfolding free energy: 10 kcal/mol

B7: Dihydrofolate reductase type 2 wild type, P00383 (protein)
chain: MERSSNEVSNPVAGNFVFPSNATFGMGDRVRKKSGAAWQGQIVGWYCTNLTPEGYAVESEAHPGSVQIYPVAALERIN
[4]
  denaturant m value: 1.46 kcal/mol/M
  denaturant midpoint (higher = more stable): 3.63 M
  unfolding free energy: 13.3 kcal/mol
Escherichia coli, pH 5, 30 °C, GdnHCl, CD, Acetic acid/MES/Tris 50 mM/50 mM/100 mM/, reversible: yes
  unfolding free energy: 15.5 kcal/mol
Escherichia coli, pH 5, 30 °C, GdnHCl, Fluorescence, Acetic acid/MES/Tris 50 mM/50 mM/100 mM/, reversible: yes
  unfolding free energy: 13.5 kcal/mol
Escherichia coli, pH 8, 30 °C, GdnHCl, CD, Tris/MES/Acetic acid 100 mM/50 mM/50 mM/, reversible: yes
  unfolding free energy: 9.63 kcal/mol
[5]
  Tm: 71 °C
  unfolding enthalpy (calorimetric): 307 kcal/mol

B8: Outer membrane porin F wild type, P02931 (protein)
chain: MMKRNILAVIVPALLVAGTANAAEIYNKDGNKVDLYGKAVGLHYFSKGNGENSYGGNGDMTYARLGFKGETQINSDLTGYGQWEYNFQGNNSEGADAQTGNKTRLAFAGLKYADVGSFDYGRNYGVVYDALGYTDMLPEFGGDTAYSDDFFVGRVGGVATYRNSNFFGLVDGLNFAVQYLGKNERDTARRSNGDGVGGSISYEYEGFGIVGAYGAADRTNLQEAQPLGNGKKAEQWATGLKYDANNIYLAANYGETRNATPITNKFTNTSGFANKTQDVLLVAQYQFDFGLRPSIAYTKSKAKDVEGIGDVDLVNYFEVGATYYFNKNMSTYVDYIINQIDSDNKLGVGSDDTVAVGIVYQF
Escherichia coli (strain K12), pH 7.5, Thermal, CD, Tris 50mM
  Tm: 79.3 °C

B9: Peptide deformylase wild type, P0A6K3 (protein)
chain: MSVLQVLHIPDERLRKVAKPVEEVNAEIQRIVDDMFETMYAEEGIGLAATQVDIHQRIIVIDVSENRDERLVLINPELLEKSGETGIEEGCLSIPEQRALVPRAEKVKIRALDRDGKPFELEADGLLAICIQHEMDHLVGKLFMDYLSPLKQQRIRQKVEKLDRLKARA
[6]
  denaturant m value: 1.8 kcal/mol/M
  unfolding free energy: 4.4 kcal/mol

B10: Aspartate carbamoyltransferase catalytic subunit wild type, P0A786 (protein)
chain: MANPLYQKHIISINDLSRDDLNLVLATAAKLKANPQPELLKHKVIASCFFEASTRTRLSFETSMHRLGASVVGFSDSANTSLGKKGETLADTISVISTYVDAIVMRHPQEGAARLATEFSGNVPVLNAGDGSNQHPTQTLLDLFTIQETQGRLDNLHVAMVGDLKYGRTVHSLTQALAKFDGNRFYFIAPDALAMPQYILDMLDEKGIAWSLHSSIEEVMAEVDILYMTRVQKERLDPSEYANVKAQFVLRASDLHNAKANMKVLHPLPRVDEIATDVDKTPHAWYFQQAGNGIFARQALLALVLNRDLVL
Escherichia coli (strain K12), pH 8.3, 7.5 °C, Urea, Absorbance, HEPES 0.1 M, reversible: yes
  unfolding free energy: 2 kcal/mol

B11: Cutinase 1 wild type, P00590 (protein)
chain: MKFFALTTLLAATASALPTSNPAQELEARQLGRTTRDDLINGNSASCRDVIFIYARGSTETGNLGTLGPSIASNLESAFGKDGVWIQGVGGAYRATLGDNALPRGTSSAAIREMLGLFQQANTKCPDATLIAGGYSQGAALAAASIEDLDSAIRDKIAGTVLFGYTKNLQNRGRIPNYPADRTKVFCNTGDLVCTGSLIVAAPHLAYGPDARGPAPEFLIEKVRAVRGSA
Fusarium vanettenii, pH 4.5, Thermal, Fluorescence, Sodium acetate 25 mM, reversible: Yes
  Tm: 75 °C
[7]
  unfolding enthalpy (calorimetric): 104 kcal/mol and 92.3 kcal/mol
  unfolding enthalpy (van 't Hoff): 212 kcal/mol and 122 kcal/mol
